{
  "source": "paper PMC11098746",
  "about": "(2024)",
  "binders": {"B1": {"name": "48 (protein)", "chain": "GCIKLKTSYKHEPILLLKNDERIISLNKIIPYLTEEVFISKDNIMTKINVENNICIELIKKHEILNTPIEHFFHFTNREYTIDLRNNDNIYNYAKRILNNKLDFELCNKILSFTIPINYNICSFPSYHNYFLYINYLKDVKIELIISALEKAKFLFLKIPNTFNLNTAHANFNDNDYIIEKGILENDLIKIDISKIIHRYICKKYYLYKSDEQINDDDLRQINNNNANNDISDKEIKMVLMTSHTLSDIIIFPSIIQNVQALKHYKNIKNVVKLKKKIKKRYTEWENWAPCYNVCNNNFAYKCRYYKCTTENQEFCDQNFHMNFAECPFTPCEDAIKKENEKKEIEKDKNKAIIINHENNRDQEGPIDDETMLRYRKNKKISFFMWIINNKK", "modifications": "bait human Fc-tagged dimer"}, "B2": {"name": "81 (protein)", "chain": "EFVKGSYESKGYPLIHLMNNNEYTGSANNFIKNNLINLLYIYKDVKFDEEKTLGIDSFLDIEDDTKIERLIKEKMLYINKYINSRQMIKYSGFIYLYEIIEKKNFYFLLHFLMTNNNNGLIIILPEDMYINVDEYYRINKINKLNDQNKKNKVVSQDLLEKRIMFVQSLILNMKLQQSIYFIKNNKDIEKIYENYQSKFAYFDLTRNVAISPISKIQNVYKMNSKSLYYFLNKNNNIHINTIFNKQQDNQAFLLTKQKTIIICADFNVFNIFSDLPSNTAFTNSNLITIQNLIKLFYDVYNKEQVNYNILFFFTNYYYGIQDFLNSINVIFKENIEFVICLDNLNNADFYIYESNKAQPQNVQAFYRILNNIVKGSIKKNVQMVNEKIKIHSKHLPSLHEYFVLNKINSFSLSSSKKNNNMIFLNKFPMLQPKLNIQNVKNNIAIIFKSLYLYMTQKKTDQKENTQQEQSIEKNEKEKSMLTYINKNMASNDDMNTIDYNLNKYNKFFIYKEDTLKLFNYFKTIINSNIADTNFLIKDYKLTTDKKQKFFYQKYAHVTFSMAISYVFH", "modifications": "bait human Fc-tagged dimer"}, "B3": {"name": "73 (protein)", "chain": "NNIKLNDKENINFESYFNKRTNEENVLNKNVAKEMGDTFVAHKAIELNINHHHVNNDKEFNNNNNNKHQPYYHNEHDKKFSESLKAHMDHLKILNNDLKQHIDKKERNEIYENNDLKKYIIKEIQNNKYLNKEKKSSEDIQILEEHSKKLQKEIHEWLESVNNIEEKSNILKNIKSQLLNNIASLNHALSEEIKNINDIKELQKQQNDLFSENWLYFLPSSSDYLLNEKKKNLYDNQDNSMKDDINNNDKYNIFNYLQNVQDKDNQYEVMKQDNNNIHSGSS", "modifications": "bait human Fc-tagged dimer"}, "B4": {"name": "60 (protein)", "chain": "GIITGKLNYFGTFSLKIFAKTYFQYKINTYSNLYSYCGISQEYNKAKSTCESCPIGTFWNSEKLLCENCQKYIENTATLKNGAKLKTDCLCSPGYEYSDKSSKCEKCKPGYYKKSVGNFICIKGCPINEKSITYGAKSYAEMDCKCIEGYYRKEDKCVLCLSNYYCPGNELIKPCDKNKISKEGVIHKNDCICKENYIKDNKNNNCVYCASIAKILGKPIYCSLCDPIYFHEDIYKNIFLLPNNIHNYGLINNIYNYDEDLSLQGNIMKYAYFHKTTNIERNFAHYINIKNIYHTFNNNINNYDYLTNSKFAIEIDIPEPKKCIFCDSGYYIKKKKCISCTTKYCEGFNHNPKACPKNSVVNKMKASSIFDCSCKRGYGILNERRNAYSNTITCQICPQNFFKHIISDDSCFPCPLYTYTLNQGATSILQCLPKKGYFIYMFKSINIDYLRYKFDINTENRIYNYFENNNKIFDEDVYNFFLNKQYSKFFYNTENK", "modifications": "bait human Fc-tagged dimer"}, "B5": {"name": "4 (protein)", "chain": "KVYQGQFYLKKNEKIHYLTKFSCNIGTCQFSIKMKLRDNIAAKLLNNYYKLNNKALKEMENDKDDGNNHNNNKYDDDNNNNNNRANKLLHMDYDNAYYVLSNQDLEYIPQRITLMQDIEQRYVNKNDKCYAFGNLKNSHMFNIPFYFKYSDLVNSKTYNLKNFINNKYSMSFNAIHSELKNNKLLQSEILNYGPILNEKNSNYAYKEIYAKTTHRVHVWFLMFDDCYDNFIRNLKLNIKTKLAYWEYLLHASKKFDISSLNDMDIKQDTSYNDFQNEETEKDIYSKENINNNNNNNMNNNMNEKKNKAIFYKSFNFDKITLLENPKRFLFLEEQFTKSEINDISFFLKYYQFKKMKNFNNMYNNLYKNGYYEQVIDYIYQNEGFHIEYEVNIFQTNKAHFSYE", "modifications": "bait human Fc-tagged dimer"}, "B6": {"name": "62 (protein)", "chain": "EFKRKQKVEINSLQTNKNNDNIREEKIKGDVESQPDVDGDTCVIFSSSEGNSRNCWCPRGYILCSEEDVLDVQGKLNEIKNKHERSLVTPLWMKRLCDNSNDVGFKSMSVVIDYELAVLCKDGSNKDYADFEIIGASGYITGEEMIEEQKRNPWYVPRKCTVNNFYLCRKVENDNVNCAYTPWSDWSACKNNAQKRYRKVRRSNQNNENFCLWNDKIVPRNIMEQTRSC", "modifications": "bait human Fc-tagged dimer"}, "B7": {"name": "5 (protein)", "chain": "YNIKSGNTANNIKYVNVLDNDRDINTHSVLPEVENVIERKDIYRQINFMETFVSSNNMMHDREKHTSNDAGSYEITGIVDGMKIGHPISVALGSQYSNYFDYLQIVHLDYTNSRFSFTVGEGKYYLRTYGSTYMTPSAIKIKVPCEKCKFINSEYSGIIKIIPYETNNNLFIYNWVLQTSSPLALENINTVFSDEADLIHGNSLSEEFKIDSSAAATSLNTFYGIVLHGIWSSEYAERLLTVISEFPDCVKMSAHDKNARSKQRKNQKWILVNEDLGSFDMKMEVCEEVNCDYSAIIHVSKHAFEYSKKLVHNRGRNGRYYSRRVEKILIRALLSLDFSLFITYFQQKHGVTLLDPQYDYELITNMAGYSSNNYQSWNHNLEELVELATSWDEYPKGLQKVQGLSYLLRRKNGAKHPVYPTAPAVAFPAGSQNNAFIEFMESAFVNYVDISHLVIHEVAHFIWVNTVSKELKEKWIQIGQWYKEPLSPSEWATKLEVEFVSAYAHDKNPAEDFAESMATYVLNSKLLNSRSFDKFKWIQDNLFGGGFYITTGTHKFDVINLGNEVYYFPGKVTRVRAKVLGSPTEDKLVKIYISLLSSDGSEGCAKHGYARIFSEQQTFRDLYFHTEDRSPCSHKLYGEFTMNKHESRGRWTAESMIFTGENNIERYVGLGSFHFYLYVNNQNEDVEKPIPLLDSISIYTHNAAETNDALLRLHVMVLENELIKEHGGPYASFAAHENKAYSYESRTYKMYPPEFNTLMLKADYFIRDINTRGFREVNMDSCKSYTNMDTRNLKCFQVLNPVTIPKYCIGSTYFLRQVSIEDIAGNLETVNIASDKYSARLHPIGVRDKQKPVVSNVRVSSKPANEYHDGETIVSLSFNVHDNLAGVYYIFVYLRDPHGGKHRSDIDRASLPTGTENKQINHKILLPKGSMGGTWMLEEIKAVDSCKNEARNIYTHSVYVQND", "modifications": "bait human Fc-tagged dimer"}, "B8": {"name": "35 (protein)", "chain": "NNADINKAWKKNTYVDKKLNKLFNRALGESQVNGELASEEVKEKILDLLEEGNTLTESVDDNKNLEEAEDIKENILLSNIEEPKENIIDNLLNNIGQNSEKQESVSENVQVSDELFNELLNSVDVNGEVKENILEESQVNDDIFNSLVKSVQQEQQHNVEEKVEESVEENDEESVEENVEENVEENDDESVASSVEESIASSVDESIDSSIEENVAPTVEEIVAPTVEEIVAPSVVESVAPSVEESVEENVEESVAENVEESVAENVEESVAENVEESVAENVEESVAENVEESVAENVEEIVAPTVEESVAPTVEEIVAPSVEESVAPSVEEIVVPTVEESVAENVEEIVAPSVEEIVAPSVEEIVAPTVEESVAPTVEEIVAPSVEESVAPSVEEIVVPTVEESVAENVEESVAENVEEIVAPSVEEIVAPSVEEIVAPSVEEIVAPSVEEIVAPSVEEIVAPSVEEIVAPSVEEIVAPSVEEIVAPTVEEIVAPTVEEIVAPSVEEIVAPTVEESVAENVATNLADNLLSNLLGGIETEEIKDSILNEIEEVKENVVTTILENVEETTAESVTTFSNILEEIQENTITNDAIEEKLEELHENVLSAALENTQSEEEKKEVIDVIEEVKEEVATTLIETVEQAEEESASTITEIFENLEENAVESNENVAENLEKLNEAVFNTVLDKVEETVEISGESLENNEMDKAFFSEIFDNVKGIQENLLTGMFRSIETSIVIQSEEKVDLNENVVSSILDNIENMKEGLLNKLENIASTEGVQETVTEHVEQNVYVDVDVPAMKDQFLGILNEAGGLKEMFFNLEDVFKSESDVITVEEIKDEPVQKEVEKETVSIIEEMEENIVDVLEEEKEDLTDKMIDAVEESIEISSDSKEETESIKDKEKDVSLVVEEVQDNDMDESVEKVLELKNMEEELMKDAVEINDITSKLIEETQELNEVEADLIKDMEKLKELEKALSEDSKEIIDAKDDTLEKVIEEEHDITTTLDEVVELKDVEEDKIEKVSDLKDLEEDILKEVKEIKELESEILEDYKELKTIETDILEEKKEIEKDHFEKFEEEAEEIKDLEADILKEVSSLEVEEEKKLEEVHELKEEVEHIISGDAHIKGLEEDDLEEVDDLKGSILDMLKGDMELGDMDKESLEDVTAKLGERVESLKDVLSSALGMDEEQMKTRKKAQRPKLEEVLLKEEVKEEPKKKITKKKVRFDIKDKEPKDEIVEVEMKDEDIDEDIEEDVEEDIEEDKVEDIDEDIDEDIDEDIGEDKDEVIDLIVQKEKRIEKVKEKKKKLEKKVEEGVSGLKKHVDEVMKYVQKIDKEVDKEVSKALESKNDVTNVLKQNQDFFSKVKNFVKKYK", "modifications": "bait human Fc-tagged dimer"}, "B9": {"name": "40 (protein)", "chain": "ISTHDTCDEWSEWSACTHGISTRKCLSDSSIKDETLVCTKCDKWGEWSECKDGRMHRKVLNCPFIKEEQECDVNNEMAEDTHMNNAYIYFNADDGDNEYEDHDDKNDDDKNYDNENDDDKNDDDKNDDDKNDDDKNDDDKNDDEENYNDAEEKVKNNDIHNSAANSNNEVTNFIQIKDKIMIKHKTTNIHPVNFIQEKYTRNNKYRSDNFAKILNNMNHINNNNYNSRSSSTSSKNARGYRGGSSNMYPHVPNYASSSVHNSANNERKSDEDLDNIEGDNIAKEERIVPINNKNYDNHDEHSNIHEHDTSRNVDNEKYNSNDDLPNLATYDYDMNNDAYKKNHMKKPMDSIKEEQTKQENNQNNEKVSSSEKQNDDISALYEHMNTKDQEHTQHEQPNDAAHGHFEDYSK", "modifications": "bait human Fc-tagged dimer"}, "B10": {"name": "31 (protein)", "chain": "EGYICDFSSEKYNIYFDEQKDDVICYHEIYEGDSIGIIIPRYKEGNENIYIKTNCFNEVSLESSGNNALSIYDIFNDDEITLYDQDSIFYTEYISSILHIKKVKKNTYLHCVFESKDVNGLTTHKGIAKITIKNVKHNENKKLINNDVDNNAALSFKKKLTNKLVIDLLNKIDIIKDDKLNNQYNNDDNKFLVEAKPGDILYLLGVKRKNKKYLYVDQDCPLHFERIGSIYKYIFPIINEKEEIYNCALYVDDDVSTNKKIVGNLKITFVSKNPAINDINIDVLKKYIHSDIEQKLYKLLYGEISNSVNKYAEQNVDINNADISAIQFMNLNSDNCNNNECIEFFNNAACSSYCGKGYRLLNGNNHMYDEQMVVPCYNGECKPEDEIEP", "modifications": "bait human Fc-tagged dimer"}, "B11": {"name": "64 (protein)", "chain": "RMNVVSHNSMKKVGEEGKDEKIISCVVEYVIKGDLSIDDGDFCDSNSICSNNPGLCDNGQVVVPGDYCSNYYDITLVVEESSFVQKDYWLKGTIPFLESMVFNSNVAKDKAHMSVVLFAGKQRVVVPFTDESSQDKNMLLEKINSIDEGIATSSDTLYVNALKYAIENVIFGDGTRKDAPKVAVLFYYGFDYGANKNMIPDVVQTYKEQNVKLIIVGIALGIRDNAYLLADCSIGDENCVNVVFKPWDFVIPAAADVNQKICDKNKA", "modifications": "bait human Fc-tagged dimer"}},
  "note": "No end group written: not given here.",
  "data": [
    {"target": "FGFR4 ectodomain (Homo sapiens, UniProt P22455)", "test": "AVEXIS normalised luminescence", "values": [
      {"binder": "B1", "binding score": 0.752},
      {"binder": "B2", "binding score": 0.817},
      {"binder": "B3", "binding score": 198},
      {"binder": "B4", "binding score": 0.959},
      {"binder": "B5", "binding score": 0.9},
      {"binder": "B6", "binding score": 1.47},
      {"binder": "B7", "binding score": 0.798},
      {"binder": "B8", "binding score": 0.753},
      {"binder": "B9", "binding score": 1.75},
      {"binder": "MNEAKEEKTNMRNNHLSRVTIEILPSDEDNDIFDINDALLDELIGINNI (also: human Fc-tagged dimer)", "note": "[65]", "binding score": 1.05},
      {"binder": "B10", "binding score": 1.28},
      {"binder": "B11", "binding score": 0.876}
    ]}
  ]
}
